This is an account of results in patent publication US20120039932A1.

The test concerns the target human DC-SIGN (CD209), expressed on 293T cells (human) (UniProt Q9NNX6). As to the kind of experiment: cell-based or functional assay.
Chain of UniProt Q9NNX6 (Q9NNX6 whole entry): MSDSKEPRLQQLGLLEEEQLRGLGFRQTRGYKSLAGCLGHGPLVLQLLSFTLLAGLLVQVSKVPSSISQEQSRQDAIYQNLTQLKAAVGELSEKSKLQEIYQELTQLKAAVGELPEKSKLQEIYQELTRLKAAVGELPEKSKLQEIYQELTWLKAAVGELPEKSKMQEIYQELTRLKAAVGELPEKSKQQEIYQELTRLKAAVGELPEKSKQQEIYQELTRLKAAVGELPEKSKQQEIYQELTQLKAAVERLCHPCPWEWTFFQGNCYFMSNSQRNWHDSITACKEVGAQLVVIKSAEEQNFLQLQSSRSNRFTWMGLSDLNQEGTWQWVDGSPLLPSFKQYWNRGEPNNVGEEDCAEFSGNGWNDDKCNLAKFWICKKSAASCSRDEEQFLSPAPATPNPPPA

On to “Sindbis virus HR strain envelope E2 glycoprotein, on pseudotyped lentiviral vector particles (from UniProt P03316 329-751)”, for which the GFU/mL on 293-hDC-SIGN cells (transduction titer) turned out to be 6.4e+06 GFU/mL and the Ratio (GFU/mL on 293-hDC-SIGN cells over 293T cells) was found to be 9.4.
For “VSV-G envelope glycoprotein, on pseudotyped lentiviral vector particles (from UniProt P03522 17-511)”, the GFU/mL on hDC-SIGN cells (transduction titer) was 1.35e+08 GFU/mL and the Ratio (GFU/mL on hDC-SIGN cells over 293T cells) stood at 1.19.
